Like-named read-outs stand apart in the source and are kept apart here.

Results on two substances are retold here after paper PMC4838890, “Dynamic and flexible H3K9me3 bridging via HP1β dimerization establishes a plastic state of condensed chromatin” (Nature Communications, 2016).

The target of one experiment is T1, H3K9me3 peptide (Homo sapiens, UniProt P68431).
T1 construct: C-terminally biotinylated histone H3 peptides (aa 1–20)
The experiment is described as follows: SPR, immobilized H3K9me3 peptide. Format: binding. Particulars: for association kinetics: H3K9me3 surfaces of different density; for dissociation (release from matrix): more pronounced at higher H3K9me3 surface densities. The protocol: SPR measurements were performed on a Biacore 2000 instrument (GE Healthcare, Buckinghamshire, UK) at 298 K in 10 mM triethanolamine (pH 7.5), 150 mM NaCl, 0.1 mM EDTA, 1 mM DTT, 0.005% (v/v) Tween-20. Biotinylated ligands were immobilized on streptavidin-coated sensor chips SA (GE Healthcare, Buckinghamshire, UK). Before immobilization, sensor chips were conditioned as described by the manufacturer. To obtain low surface densities (5–24 RU), 5 nM biotinylated H3 peptide was injected at a low rate of 10 μl min^−1 using varying contact times. High surface densities (>700 RU) were prepared by injecting […] peptide (10 μl min^−1) until the SA surface was saturated. Peptide-containing chips were regenerated by applying three short pulses of 0.05% (w/v) SDS followed by an injection of 1.5 M NaCl for baseline stabilization. For binding assays, hHP1β proteins were injected at […] (serial twofold dilutions) for 2 min (30 μl/min). Dissociation was recorded for up to 5 min. A streptavidin surface without ligands served as reference. In addition, blank runs were performed for double referencing. Data evaluation was performed by steady-state analysis assuming a Langmuir 1:1 binding model using BIAevaluation 4.1 and Prism 5.04 (GraphPad, CA, USA) software. Binding to the unmodified peptides was analysed with maximum binding (RUmax) set to the corresponding values obtained with the modified peptides.
Figure S8 Hiragami-Hamada et al.
20 30 one site-specific 20 30 one site-specific […]
time [s] concentration [ μM] time [s] concentration [ μM]
40 two site-specific 40 one site-specific […]
time [s] concentration [ μM]
Supplementary Figure 8: hHP1β binds nucleosomes as dimer.
(a) Dynamic light scattering (DLS) analysis of recombinant hHP1β WT (blue) and I161A (red).
(b) SPR response traces of injection of hHP1β WT into Biacore cells containing biotinylated H3K9me3-peptide immobilized on a sensory chip via covalently coated streptavidin. Immobilized peptide was at 24
RU. Injection series are from 0.024 to 50 µM protein concentration.
(c) Blot of signal over concentration of the titration in (b) to deduce an apparent Kd value. Best fitting was achieved by one site-specific binding model.
(d ) Same analysis as in (b) but with hHP1β I161A.
(e) Blot of signal over concentration of the titration in (d) to deduce an apparent Kd value. […]
(also on this page, place not known: dimer . hHP1 β H3K9me3 - se nsory ( b) site -specific ( b) hHP1 β ( d) site -specific hHP1 β modifi ed H3K9me3 -mononucleosomes H3 -tails -30 -50 -8 -4 200 -10 110 -50 -10 -30 [μM] [μM] -10 190 150 -10 110 200 -10 110 μl/min μl/min μl/min -50 150 response [RU] response [RU] response [RU] response [RU] response [RU] [μM] 10 50 response [RU]40 0 0 [μM] 10 30 50 response [RU] 40 0 0 40 [μM] 10 30 50 response [RU] 140 40 0 120 0 40 response [RU] response [RU] response [RU] Kd Kd μM Kd μM 0.8 0.6 0.4 0.2 0 1 1.0 0.8 0.6 0.4 0.2 0.0 mass fraction)
In general terms: Surface plasmon resonance follows binding to a sensor surface in real time, without labels.

The subject of a further experiment is H3K9me3 oligonucleosomes. The experiment is described as follows: Chromatin coprecipitation, H3K9me3 oligonucleosomes. Format: binding, Xenopus laevis. As to the method:
6.7 nM oligonucleosomes were incubated with 1 μM recombinant protein in 100 μl binding buffer (10 mM triethanolamine (pH 7.5), 150 mM NaCl, 5 mM MgCl2, 0.1 mM EDTA, 0.1% (v/v) Triton-X100) for 1 h on ice. Precipitated chromatin complexes were recovered by centrifugation at 16,100g for 30 min at 4°C. Pellets were washed once with 0.5 ml binding buffer and centrifuged for 15 min at 4 °C. Precipitated material was resuspended in 10 μl 1 × SDS loading buffer and boiled for 5 min before running on SDS–PAGE.
Supplementary Table 1: Summary of conditions used in the different experiments of this study.
experiment result modification template Temp. [NaCl] [MgCl2]
chromatin Fig. 1e,f; Fig. S1f-h; H3K9me3 oligo- 4 150 5

[1] abbreviates: SPR titration 0.024 to 50 µM, peptide at 24 RU, one site-specific binding model, read-out: apparent Kd (Supplementary Fig. 8c,e).
The mark [2] stands for this setting: SPR, 150 mM NaCl, pH 7.5, 298 K, steady-state, WT value based on fitting to a one site-specific binding model, read-out: Kd (apparent dissociation constant).

“hHP1β WT: recombinant human heterochromatin protein 1β (GenBank NM_001127228), 185 aa”: the “stronger binding to the H3K9me3 matrix compared with the I161A protein” value with H3K9me3 peptide (SPR titration) is 10 fold. Also, in the experiment with H3K9me3 peptide (setting [1]), the Kd was determined as 0.73 µM. In addition, the Kd with H3K9me3 peptide (setting [2]) came to 0.7 ± 0.1 µM. Moreover, the binding mode result in the experiment with H3K9me3 peptide (SPR, H3K9me3 peptide and mononucleosome surfaces) is “fully consistent with a bivalent interaction mode”. In addition, in the experiment with H3K9me3 peptide (SPR), the association kinetics result is given as “very fast association kinetics” and the “dissociation (release from matrix)” value is “released more slowly”. Moreover, in the experiment with H3K9me3 oligonucleosomes (chromatin coprecipitation, 5 mM MgCl2), the “specificity for H3K9me3” value is reported as “coprecipitated only with H3K9me1/2/3 but not H3K9me0 oligonucleosomes”. In addition, the “dependence of recovery on DNA sequence” value in the experiment on H3K9me3 oligonucleosomes (chromatin on linearized pUC18 or 12 x 5S rDNA) is listed as “independent of the DNA sequence used for chromatin reconstitution”.

Turning to “hHP1β I161A: CSD point mutant of hHP1β incapable of dimerization”, the Kd in the experiment with H3K9me3 peptide (setting [1]) is 7.5 µM. Further, the Kd in the experiment with H3K9me3 peptide (setting [2]) worked out at 7 ± 0.4 µM. Moreover, in the experiment with H3K9me3 peptide (SPR), the association kinetics entry was “very fast association kinetics” and the “dissociation (release from matrix)” value is given as “dissociated rapidly from the H3K9me3 ligand”. The “recovery with H3K9me3 oligonucleosomes” value in the experiment on H3K9me3 oligonucleosomes (6.7 nM oligonucleosomes, 1 μM protein, 150 mM NaCl, 5 mM MgCl2, 1 h on ice) was “neither the monomeric CD alone nor an I161A mutant protein, which is incapable of dimerization[8], were significantly recovered with H3K9me3 oligonucleosomes”. In addition, in the experiment with H3K9me3 oligonucleosomes (competitive coprecipitation, Supplementary Fig. 2b), the “competition with hHP1β WT for interaction with H3K9me3 oligonucleosomes” value is “ineffective in competing with hHP1β WT”.
